Results on six sequences are retold here after the DeepSol protein solubility set.

The data set in a line: soluble on expression in E. coli; label from the status in PepcDB or PDB records.
Turning to “MGSDKIHHHHHHVGTGDGNAIWPIRSVHLIGAIYPHILEELMLNTVILYSTVDGQTLAICQKIKQILVEQGEQVSVVNLAEVEADDLASVDKVVIGASIRYGKHRPELFKFVEQHKVLLDTKHNSFFSVNVVARKPEKNTPETNPYMQKFSNLSAWKPQLLGVFAGKIDYPRYRFFDKFMIRFIMWMTKGPTDTQGTFEFTDWGKVDDYAKQIAAQK”, the “soluble on expression in E. coli” value is recorded as “not soluble”.

Turning to “MGHHHHHHSHMAALKEDRSYGLSCGRVSDGSKVSVFHVKLTDSALRAFESYRARQDSVSLRPSIRFQGSQGHISIPQPDCPAEARTFSFYLSNIGRDNPQGSFDCIQQYVSSHGEVHLDCLGSIQDKITVCATDDSYQKARQSMAQAEEETRSRSAIVIKAGGRYLGKKVQFRK”, the “soluble on expression in E. coli” value is given as “not soluble”.

For the sequence “MQGAQTSEDNLGSQSQPGPCGYIYFYPLATYPLREVATLGTGYAGHRCLTVPLLCGITVEPGFSINVKALHRRPDPNCGLLRATSYHRDIYVFHNAHMVPPIFEGPGLEALCGETREVFGYDAYSALPRESSKPGDFFPEGLDPSAYLGAVAITEAFKERLYSGNLVAIPSLKQEVAVGQSASVRVPLYDKEVFPEGVPQLRQFYNSDLSRCMHEALYTGLAQALRVRRVGKLVELLEKQSLQDQAKVAKVAPLKEFPASTISHPDSGALMIVDSAACELAVSYAPAMLEASHETPASLNYDSWPLFADCEGPEARVAALHRYNASLAPHVSTQIFATNSVLYVSGVSKSTGQGKESLFNSFYMTHGLGTLQEGTWDPCRRPCFSGWGGPDVTGTNGPGNYAVEHLVYAASFSPNLLARYAYYLQFCQGQKSSLTPVPETGSYVAGAAASPMCSLCEGRAPAVCLNTLFFRLRDRFPPVMSTQRRDPYVISGASGSYNETDFLGNFLNFIDKEDDGQRPDDEPRYTYWQLNQNLLERLSRLGIDAEGKLEKEPHGPRDFVKMFKDVDAAVDAEVVQFMNSMAKNNITYKDLVKSCYHVMQYSCNPFAQPACPIFTQLFYRSLLTILQDISLPICMCYENDNPGLGQSPPEWLKGHYQTLCTNFRSLAIDKGVLTAKEAKVVHGEPTCDLPDLDAALQGRVYGRRLPVRMSKVLMLCPRNIKIKNRVVFTGENAALQNSFIKSTTRRENYIINGPYMKFLNTYHKTLFPDTKLSSLYLWHNFSRRRSVPVPSGASAEEYSDLALFVDGGSRAHEESNVIDVVPGNLVTYAKQRLNNAILKACGQTQFYISLIQGLVPRTQSVPARDYPHVLGTRAVESAAAYAEATSSLTATTVVCAATDCLSQVCKARPVVTLPVTINKYTGVNGNNQIFQAGNLGYFMGRGVDRNLLQAPGAGLRKQAGGSSMRKKFVFATPTLGLTVKRRTQAATTYEIENIRAGLEAIISQKQEEDCVFDVVCNLVDAMGEACASLTRDDAEYLLGRFSVLADSVLETLATIASSGIEWTAEAARDFLEGVWGGPGAAQDNFISVAEPVSTASQASAGLLLGGGGQGSGGRRKRRLATVLPGLEV”, the “soluble on expression in E. coli” value is recorded as “soluble”.

Regarding “MSLDSKIDILIVVNMFLTGFDSKVLNTLYVDKNLMYHDLIQAYSRTNRVEKESKPFGKIVNYRDLKKETDDALRVFSQTNDTDTILMRSYEEYKKEFMDAYRELKMIVPTPHMVDDIQDEGHHHHHH”, the “soluble on expression in E. coli” value was “not soluble”.

Consider “MEGFPVRVRVDVRFRDLDPLGHVNNAVFLSYMELARIRYFQRISPDWLEEGHFVVARMEVDYLRPILLGDEVFVGVRTVGLGRSSLRMEHLVTANGESAAKGLGVLVWLEGGRPAPLPEAIRERIRALEGRPL”, for which the “soluble on expression in E. coli” value is reported as “soluble”.

Regarding “MEGYPKIQYHGFIGNNRTAMLVAMNGYIDWGCLPNFNSNAVFSSILDKNKGGYFAIFPSDTTDVYVDQYYKEMTNVLVTEFVKNGKIILRLTDFMPDSEYGKISFPEVHRFVESFSEPIDITIDFKPTFNYLEHHHHHH”, the “soluble on expression in E. coli” value is “not soluble”.
